Values quoted from earlier work, collected in paper PMC3931982.

Target: RXR LBD (Homo sapiens) (UniProt P19793)

- Kd: 4 nM
Substance: RXR LBD (from UniProt P19793)
